The target of the test is T1, α1-proteinase inhibitor (human, UniProt P01009 25-418).
T1 construct: also called α1-PI; α1PI
The test is described as follows: ELISA of HNE-α1-PI complexes in human plasma. (In an ELISA, binding on a coated surface is turned into a signal by an enzyme label.)

T1 sequence (P01009 25-418 limits assumed): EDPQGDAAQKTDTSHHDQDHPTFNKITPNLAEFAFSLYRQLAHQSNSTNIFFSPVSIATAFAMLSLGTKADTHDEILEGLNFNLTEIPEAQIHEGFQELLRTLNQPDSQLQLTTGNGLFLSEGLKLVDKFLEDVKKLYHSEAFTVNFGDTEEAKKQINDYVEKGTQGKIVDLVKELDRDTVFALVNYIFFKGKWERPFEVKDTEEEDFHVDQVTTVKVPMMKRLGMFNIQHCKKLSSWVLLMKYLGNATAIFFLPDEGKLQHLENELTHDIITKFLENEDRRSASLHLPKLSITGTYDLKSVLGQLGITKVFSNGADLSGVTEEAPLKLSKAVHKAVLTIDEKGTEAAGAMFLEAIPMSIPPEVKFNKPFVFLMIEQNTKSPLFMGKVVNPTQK

B1: Human neutrophil elastase (enzyme, UniProt P08246 30-247, looked up)
chain: IVGGRRARPHAWPFMVSLQLRGGHFCGATLIAPNFVMSAAHCVANVNVRAVRVVLGAHNLSRREPTRQVFAVQRIFENGYDPVNLLNDIVILQLNGSATINANVQVAQLPAQGRRLGNGVQCLAMGWGLLGRNRGIASVLQELNVTVVTSLCRRSNVCTLVRGRQAGVCFGDSGSPLVCNGLIHGIASFVRGGCASGLYPDAFAPVAQFVNWIDSIIQ
notes: Tested free (purified, in supernatants or in plasma) and as an HNE-DNA complex on NETs; also called HNE; leukocyte elastase
Regarding B1, the binding result is given as “binds”.
